Measured values taken from patent publication US8637043B2, “Compositions useful as ligands for the formyl peptide receptor like 1 receptor and methods of use thereof” (Chemocentryx, Inc., priority 2001, dated 2014).
Several values for one entry are separate records, joined by “and”; a condition that tells them apart may be missing. Identical values can stand only once. Ends that are not written are not given here.

B1: CKβ8(25-99): known truncated CKβ8 variant, human recombinant chemokine from R&D Systems (protein, listed as Homo sapiens)
chain: RFHATSADCCISYTPRSIPCSLLESYFETNSECSKPGVIFLTKKGRRFCANPSDKQVQVCMRMLKLDTRIKTRKN
B2: CKβ8-1(1-116): alternatively spliced form of CKβ8, 116 amino acids, human recombinant chemokine (protein, listed as Homo sapiens)
chain: RVTKDAETEFMMSKLPLENPVLLDMLWRRKIGPQMTLSHAAGFHATSADCCISYTPRSIPCSLLESYFETNSECSKPGVIFLTKKGRRFCANPSDKQVQVCMRMLKLDTRIKTRKN
B3: CKβ8-1(25-116): novel NH2-terminal truncated form of CKβ8-1, SEQ ID NO: 16, human recombinant chemokine (protein, listed as Homo sapiens)
chain: MLWRRKIGPQMTLSHAAGFHATSADCCISYTPRSIPCSLLESYFETNSECSKPGVIFLTKKGRRFCANPSDKQVQVCMRMLKLDTRIKTRKN

How the values were obtained:
human neutrophils = test: Calcium flux in human neutrophils; assay type: cell-based; settings: for calcium flux: human neutrophils
Description: (§1) Ca^2+ mobilization responses were performed using the intracellular ratiometric fluorescent dye, lndo-1. Cells were loaded with Indo-1/AM (3 μM; Molecular Probes, Eugene, Oreg.) in culture medium (45 min, 20° C., 10^7 cells/ml). After dye loading, cells were washed once with 10 ml PBS) and resuspended at 10^6 cell/ml in HBSS containing 1% FBS. Cytosolic [Ca^2+] release was determined using excitation at 350 nm using a Photon Technology International fluorimeter (excitation at 350 nm, ratioed dual emission at 400 and 490 nm).
The human recombinant chemokines, leukotactin, MlP-1α, three known CKβ8 variants CKβ8(1-99), CKβ8(25-99), CKβ8-1(1-116) and a novel NH2-terminal truncated form of CKβ8-1, CKβ8-1 (25-116) were obtained from R&D Systems (Minneapolis, Minn.). Human monocytes were generated from buffy coats (Stanford Blood Center, Palo Alto, Calif.) following a standard protocol. Briefly, PBMC were isolated by standard density gradient centrifugation (Ficoll-Paque-Plus, Pharmacia). Monocytes were purified using CD14 Microbeads (Miltenyi, Auburn, Calif.) magnetic positive selection. Human neutrophils were isolated from fresh peripheral blood from healthy individuals by gradient centrifugation on Ficoll-Hypaque (Hyclone, Calif.).
Human monocytes were either generated from buffy coats (Stanford Blood Center, Palo Also, Calif.) or from fresh blood of healthy individuals following a standard protocol. Briefly, PBMC were isolated by a Ficoll-Paque gradient centrifugation (Ficoll-Paque-Plus, Pharmacia). Monocytes were purified by CD14 Microbeads (Miltenyi) magnetic positive selection. Human neutrophils were isolated from fresh blood by dextran sedimentation and gradient centrifugation Ficoll-Paque gradient centrifugation. All cells were washed and resuspended (1×10^7/ml) in RPMI medium with 10% FBS.
as §1, with “an” for “the”, “Indo-1.” for “lndo-1.”, “Probes (Eugene, Oreg.))” for “Probes, Eugene, Oreg.)”, “cells/mi).” for “cells/ml).”, “(10” for “with 10”

human monocytes = test: Migration assay (ChemoTx), human monocytes; assay type: cell-based; settings: 90 min, 1-100 nM
Description: Migration assays were performed on monocytes and neutrophils. Human monocytes and neutrophils (prepared as in Exampe 2) were harvested and resuspended in chemotaxis medium (CM). The CM consisted of Hank's buffered salt solution (Gibco, Mass.) containing CaCl2 (1 mM) and MgSO4 (1 mM) with added 0.1% BSA (Sigma, St. Louis, Mo.). The assays were performed in 96-well ChemoTx® microplates (Neuroprobe, Mass.). Leukotactin, MlP-1α and chemokines (CKβ8(1-99), CKβ8(25-99), CKβ8-1(1-116) or CKβ8-1(25-116), prepared as in Example 1) were added to the lower wells (final volume 29 μL), and 20 μL of cell suspension (5×10^6 cells/mL for monocytes; 2.5×10^6 cells/mL for neutrophils) added to the polycarbonate filters (5 μm pore size for monocytes; 3 μm pore size for neutrophils). After incubation for 90 min (37° C., 100% humidity, 5% CO2), cells were removed from the upper surface of the filter by scraping. Cells that migrated into the lower chamber were quantified using the Quant cell proliferation assay kit (Molecular Probes, Oreg.).
The chemotactic activity on human monocytes and neutrophils of chemokines: CKβ8(1-99), CKβ8(25-99), CKβ8(1-116) and CKβ8(25-116); W peptides 1 and 2 and the SHAAGtide sequences SEQ ID NO:1 and SEQ ID NO:2 was determined in migration assays. The above peptides were prepared as in previous examples. The migration assays were performed in 96-well CHEMOTX® microplates (Neuroprobe) using the protocol described in Example 5.

mature Dendritic Cells = test: Calcium mobilization, mature dendritic cells; assay type: cell-based, human
Description: Human recombinant CKβ8-1(25-116) chemokine was obtained from R&D Systems (Minneapolis, Minn.). The peptide SHAAGtides SEQ ID NO:1 and SEQ ID NO:6 and a control protein (the reverse sequence of SEQ ID NO:1) were synthesized and HPLC-purified using routine techniques as described in Sambrook et al., 1989, and Ausubel et al., 1999.
Immature DCs were derived by culturing CD14+ monocytes in the presence of GM-CSF and IL4. Briefly, monocytes were cultured in a T-175 flask at 10^6 cells/ml in RPMI/10% FCS. Recombinant human GM-CSF and IL4 were added on day 0, 2, 4 and 6 to a final concentration of 1000 u/ml and 500 u/ml, respectively. Cells were harvested on day 7 as immature DCs and characterized for surface protein expression by FACS analysis. DC maturation was carried out by culturing day 6 immature DCs in macrophage-conditioned medium (MCM). Briefly, day 6 immature DCs were harvested by centrifugation and resuspended in MCM at 10^6 cells/ml. The medium was supplemented with 1000 u/ml of GM-CSF and 500 u/ml IL4. After three more days of culture, cells were harvested as mature DCs and characterized by surface protein expression flow cytometry.
MCM was prepared as follows: PBMCs isolated from buffy coat were incubated at 37° C. in a plastic flask pre-coated with 10 mg/ml human IgG (Sigma, St Louis, Mo.) for 30 minutes. After 30 minutes, non-adherent cells were removed and adherent cells were washed three times with DPBS, then cultured in RPMI/10% human serum. Conditioned-medium was collected after 24 hours. TNF-α concentration, which is critical for DC maturation, was determined by using a TNF-α ELISA kit (R&D Systems, Minn.). The final TNF-α level in MCM was adjusted to 50 u/mi by mixing with RPMI/10% human serum, and was stored at −80 freezer until use.
as §1, with “an” for “the”, “Indo-1.” for “lndo-1.”, “Probes (Eugene, Oreg.))” for “Probes, Eugene, Oreg.)”, “cells/mi).” for “cells/ml).”, “(10” for “with 10”

monocytes = test: Cross-desensitization with leukotactin, monocytes; assay type: cell-based, human
Description: In cross-desensitization tests tests, cells were stimulated sequentially with leukotactin and then the chemokines CKβ8(1-99), CKβ8(25-99), CKβ8-1(1-116), and CKβ8-1(25-116). On HEK293-CCR1 transfectants (prepared as in Example 1), leukotactin induced similar patterns of receptor desensitization to all variants.
Similar receptor cross-desensitization tests were performed using both monocytes and neutrophils (prepared as in Example 2).

| Molecule | calcium flux (human neutrophils; Example 8) | migration of monocytes (human monocytes) | calcium flux (mature Dendritic Cells) | calcium flux (human neutrophils; 100 nM) | desensitization by leukotactin prestimulation (monocytes) | magnitude of calcium release compared with leukotactin (human neutrophils; neutrophils, same amount of leukotactin) |
| --- | --- | --- | --- | --- | --- | --- |
| MLWRRKIGPQMTLSHAAG [SEQ ID NO: 1] | robust calcium flux | produced migration | partially active |  |  |  |
| MLWRRKIGPQMTLSHAAY [SEQ ID NO: 6] | robust calcium flux |  | partially active |  |  |  |
| B1 |  | moderate activity |  | neither MlP-1α nor CKβ8(1-99), CKβ8(25-99) or CKβ8(1-116) induced a calcium flux | completely desensitized |  |
| B2 |  | moderate activity |  | neither MlP-1α nor CKβ8(1-99), CKβ8(25-99) or CKβ8(1-116) induced a calcium flux | completely desensitized |  |
| B3 | robust calcium flux | dramatically higher activity than the other three variants at 100 nM and 1 and 10 nM was very similar to the other variants and produced migration | partially active | induced an unique calcium release | did not desensitize | much higher than observed for the same amount of leukotactin stimulation |
